The values below come from patent US20170037106A1 (FLOREY INSTITUTE OF NEUROSCIENCE AND MENTAL HEALTH, published 2017).

Square brackets hold non-standard residues; d marks the D form. Ends that are not written are not given here. hArg = N=C(N)NCCCC[C@H](N)C(=O)O

The chains are these.
B1: R17A (AcB7-33 C11.23S) (peptide)
peptide: Ac-VIKLSGRELVAAQIAISGMSTWSKRSL-NH2
B2: R13A (AcB7-33 C11.23S) (peptide)
peptide: Ac-VIKLSGAELVRAQIAISGMSTWSKRSL-NH2
B3: R13/17A I20A (AcB7-33 C11.23S) (peptide)
peptide: Ac-VIKLSGAELVAAQAAISGMSTWSKRSL-NH2
B4: KKKK (AcB7-29 C11.23S) (peptide)
peptide: Ac-VIKLSGRELVRAQIAISGMSTWSKKKK-NH2
notes: AcB7-29 C11.23S with KKKK at the C-terminus in place of KRSL
B5: B1-33ox (peptide)
peptide: DSWMEEVIKLCGRELVRAQIAICGMSTWSKRSL-NH2
modifications: not fully specified (bridges); printed as DSWMEEVIKLCGRELVRAQIAICGMSTWSKRSL-NH2; cysteine pairing not given here
B6: B1-33 C11.23S (peptide)
peptide: DSWMEEVIKLSGRELVRAQIAISGMSTWSKRSL-NH2
B7: Native B7-33 (peptide)
peptide: VIKLCGRELVRAQIAICGMSTWSKRSL-NH2
modifications: not fully specified; printed as VIKLCGRELVRAQIAICGMSTWSKRSL-NH2; also: oxidised (ox), disulfide pattern not described
notes: also called B7-33ox
B8: AcB7-33 C11.23S (peptide)
peptide: Ac-VIKLSGRELVRAQIAISGMSTWSKRSL-NH2
B9: I20A (AcB7-33 C11.23S) (peptide)
peptide: Ac-VIKLSGRELVRAQAAISGMSTWSKRSL-NH2
B10: B7-33 C11.23S R17K (peptide)
peptide: VIKLSGRELVKAQIAISGMSTWSKRSL-NH2
B11: Modified B7-33 (B7-33 C11.23S) (peptide)
peptide: VIKLSGRELVRAQIAISGMSTWSKRSL-NH2
notes: also called single chain B7-33 C11.23S peptide
B12: B7-29 C11.23S (peptide)
peptide: VIKLSGRELVRAQIAISGMSTWS-NH2
B13: B7-33 C11.23S R17HR (peptide)
peptide: VIKLSGRELV[hArg]AQIAISGMSTWSKRSL-NH2
modifications: N-terminus assumed
SMILES: CC[C@H](C)[C@H](NC(=O)[C@H](C)NC(=O)[C@@H](NC(=O)[C@H](CCC(N)=O)NC(=O)[C@H](C)NC(=O)[C@H](CCCCNC(=N)N)NC(=O)[C@@H](NC(=O)[C@H](CC(C)C)NC(=O)[C@H](CCC(=O)O)NC(=O)[C@H](CCCNC(=N)N)NC(=O)CNC(=O)[C@H](CO)NC(=O)[C@H](CC(C)C)NC(=O)[C@H](CCCCN)NC(=O)[C@@H](NC(=O)[C@@H](N)C(C)C)[C@@H](C)CC)C(C)C)[C@@H](C)CC)C(=O)N[C@@H](CO)C(=O)NCC(=O)N[C@@H](CCSC)C(=O)N[C@@H](CO)C(=O)N[C@H](C(=O)N[C@@H](Cc1c[nH]c2ccccc12)C(=O)N[C@@H](CO)C(=O)N[C@@H](CCCCN)C(=O)N[C@@H](CCCNC(=N)N)C(=O)N[C@@H](CO)C(=O)N[C@@H](CC(C)C)C(N)=O)[C@@H](C)O
B14: native H2 relaxin (human relaxin-2, heterodimer of A chain and B1-29 B chain) (ligand)
chain 1: QLYSALANKCCHVGCTKRSLARFC
chain 2: DSWMEEVIKLCGRELVRAQIAICGMSTWS
modifications: disulfide (positions not given here); ends not checked; also: three disulfides (two inter-chain, one within A chain), places not given here
notes: mature; Two chains linked by three disulfide bonds (two inter-chain, one within the A chain); also called native human relaxin-2; Eu^3+-labelled H2 relaxin (tracer form)

For one test, the target named is T1, RXFP1 (LGR7) receptor, on stably transfected HEK-293T cells (UniProt Q9HBX9).
T1 sequence (looked up): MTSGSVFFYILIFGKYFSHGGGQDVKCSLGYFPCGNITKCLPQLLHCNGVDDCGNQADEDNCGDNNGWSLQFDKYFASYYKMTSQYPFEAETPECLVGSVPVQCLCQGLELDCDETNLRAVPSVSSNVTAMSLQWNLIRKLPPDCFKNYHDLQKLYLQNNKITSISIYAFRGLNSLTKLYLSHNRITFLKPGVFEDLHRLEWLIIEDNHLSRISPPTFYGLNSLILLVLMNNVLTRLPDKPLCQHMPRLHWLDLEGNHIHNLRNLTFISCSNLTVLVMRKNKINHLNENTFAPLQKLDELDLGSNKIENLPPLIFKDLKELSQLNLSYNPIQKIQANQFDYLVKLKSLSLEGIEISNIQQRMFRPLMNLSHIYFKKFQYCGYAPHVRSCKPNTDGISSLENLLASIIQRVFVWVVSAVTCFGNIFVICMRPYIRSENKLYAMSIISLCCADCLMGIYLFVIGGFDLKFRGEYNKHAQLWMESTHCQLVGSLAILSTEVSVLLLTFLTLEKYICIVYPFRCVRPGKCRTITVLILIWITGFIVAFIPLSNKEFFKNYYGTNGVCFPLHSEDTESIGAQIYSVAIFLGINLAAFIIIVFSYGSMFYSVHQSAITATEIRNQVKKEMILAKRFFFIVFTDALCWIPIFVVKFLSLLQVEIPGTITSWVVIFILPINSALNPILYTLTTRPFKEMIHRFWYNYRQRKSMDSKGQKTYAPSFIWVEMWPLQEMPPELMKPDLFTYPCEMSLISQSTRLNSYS
Put plainly: cell-based or functional assay.
B1 had a cAMP pEC50 of under 5 log M.

For B2, the cAMP pEC50 was under 5 log M.

On to B3, for which the cAMP pEC50 is under 5 log M.

The target in another test is T2, RXFP1 (LGR7) receptor, on stably transfected HEK-293T cells (UniProt Q9HBX9 1-757, limits assumed).
T2 sequence (looked up): T1 sequence (looked up)
Put plainly: cell-based or functional assay.
As for B4, the “cAMP pEC50” value amounted to 5.81 log M.

Regarding B5, the “cAMP pEC50” value is under 5 log M.

Regarding B6, the “cAMP pEC50” value turned out to be 5.1 log M.

As for B7, the “cAMP pEC50” value stood at 5.11 log M.

On to B8, for which the “cAMP pEC50” value amounted to 5.4 log M.

Turning to B9, the “cAMP pEC50” value is under 5 log M.

As to B10, the “cAMP pEC50” value was under 5 log M.

For the molecule B11, the “cAMP pEC50” value is 5.12 log M.

B12: the “cAMP pEC50” value was under 5 log M.

As for B13, the “cAMP pEC50” value is under 5 log M.

On to B14, for which the “cAMP pEC50” value was found to be 10.5 log M.

Another test has as its target T3, 7BP: fusion protein comprising the extracellular domain of RXFP1 and the transmembrane domain of CD8, on cells (UniProt Q9HBX9 1-409).
T3 construct: extracellular domain;domain: transmembrane domain; also called 7BP cells; not shown: transmembrane domain of CD8
T3 sequence (looked up): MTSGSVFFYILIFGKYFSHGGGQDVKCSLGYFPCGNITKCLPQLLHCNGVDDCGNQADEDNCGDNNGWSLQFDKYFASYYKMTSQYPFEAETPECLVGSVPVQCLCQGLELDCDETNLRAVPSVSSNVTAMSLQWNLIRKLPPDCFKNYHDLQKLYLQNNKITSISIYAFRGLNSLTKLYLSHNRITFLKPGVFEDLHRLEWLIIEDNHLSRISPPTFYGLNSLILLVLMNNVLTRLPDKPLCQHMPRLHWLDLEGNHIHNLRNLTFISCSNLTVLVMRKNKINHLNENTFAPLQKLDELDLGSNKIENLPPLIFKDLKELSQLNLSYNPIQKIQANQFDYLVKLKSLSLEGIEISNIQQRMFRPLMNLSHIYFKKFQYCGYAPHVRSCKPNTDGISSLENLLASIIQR
Put plainly: Eu-H2 relaxin competition on 7BP cells.
Turning to B4, the pKi turned out to be 8.91 log M.

In turn, B8 registered a pKi of 7.54 log M.

B1 had a pKi of 6.01 log M.

Molecule B11 displayed a pKi of 7.65 log M.

With B2, the pKi was 5.76 log M.

Molecule B3 yielded a pKi of 5.54 log M.

B14 had a pKi of 8.97 log M.

A further test addresses T2, RXFP1 (LGR7) receptor, on stably …. Put plainly: Eu-H2 relaxin competition, whole HEK-293T cells stably expressing RXFP1. The procedure: Human embryonic kidney (HEK-293T) cells stably transfected with RXFP1 were cultured in RPMI 1640 medium supplemented with 10% fetal calf serum, 100 μg/ml penicillin, 100 μg/ml streptomycin and 2 mM L-glutamine and plated into 96-well pre-coated with poly-L-lysine for whole cell binding assays. Competition binding experiments were conducted with Eu³⁺-labelled H2 relaxin (as per Shabanpoor et al., 2012, Biochem Biophys Res Commun. 420, 253-256) in the absence or presence of increasing concentrations of unlabelled relaxin-2 B chain derivatives. Nonspecific binding was determined with an excess of unlabelled peptides (500 nM H2 relaxin). Fluorescent measurements were recorded at an excitation wavelength of 340 nm and emission of 614 nm on a Victor plate reader (Perkin-Elmer Inc.). […] Statistical differences in pIC₅₀ values were analyzed using one-way analysis of variance coupled to Newman Keul's multiple comparison test for multiple group comparisons in GraphPad Prism 6.
#p < 0.001 vs H2 relaxin ¹Data are presented as the mean ± S.E of the percentage of the total specific binding of triplicate wells, repeated in at least three separate experiments, and curves were fitted using one-site binding curves in GraphPad Prism 6 (GraphPad Inc, San Diego, CA).
The molecule B4 had a pKi of 6.25 log M.

B5 came in with a pKi of 6.61 log M.

B6 yielded a pKi of 5.33 log M.

B7 showed a pKi of 6.15 log M.

In turn, B8 registered a pKi of 6 log M.

Consider B11, for which the pKi stood at 5.54 log M.

B13 came in with a pKi of 6.52 log M.

As to B14, the pKi stood at 8.96 log M.
